From patent publication US20260167698A1 (ONO PHARMACEUTICAL, published 2026) come the findings set out here.

Assay [1] concerns the target T1, human Allergin-1L (expressed on CHO cells) (human, UniProt Q7Z6M3 20-343).
T1 construct: also called MILR1; human Allergin-1L-expressing CHO cell lines
T1 sequence: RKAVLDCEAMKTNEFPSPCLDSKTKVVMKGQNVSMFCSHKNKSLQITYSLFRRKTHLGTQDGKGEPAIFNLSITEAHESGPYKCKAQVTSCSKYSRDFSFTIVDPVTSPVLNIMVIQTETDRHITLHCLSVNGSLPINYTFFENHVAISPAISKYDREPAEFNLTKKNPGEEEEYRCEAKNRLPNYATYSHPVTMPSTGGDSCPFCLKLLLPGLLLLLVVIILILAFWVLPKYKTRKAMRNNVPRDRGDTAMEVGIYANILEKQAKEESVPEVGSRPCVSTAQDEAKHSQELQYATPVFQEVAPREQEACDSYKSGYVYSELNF
Put plainly: selected on binding by CELISA and SPR (Example 5). As to the method: The purified humanized scFv was analyzed for binding to CHO cells stably expressing human Allergin-1L and monkey Allergin-1, by CELISA, respectively. In detail, the CHO cells were seeded in 96-well plates, to which diluted humanized scFv was added, and which were incubated at 37° C. After washing the CHO cells, to which diluted HRP-labeled Protein L was added, and which were incubated again at 37° C. After washing the CHO cells again, to which HRP chromogenic substrate was added, and which were incubated at room temperature, and then in which absorbance was measured. As a result, the bindings to human Allergin-1L and monkey Allergin-1 were confirmed in several clones.
Furthermore, for each humanized scFv, the binding to Fc-fused human Allergin-1L recombinant protein was analyzed by SPR method. In detail, Fc-fused human Allergin-1L recombinant protein was immobilized on a sensor chip, followed by flowing humanized scFv as an analyte into a flow cell. As a result, the bindings to human Allergin-1L were confirmed in several clones.

Assay [2] deals with T1, human Allergin-1L (expressed on CHO …). Briefly: flow cytometry, binding to Allergin-1L.

Substitutions are numbered along the chain they refer to.

B1: humanized scFv Pro1586 (scFv, V domains shown)
VH: EVQLVESGGGLVQPGGSLRLSCAASGIDLSYYAMNWVRQAPGKGLEWIGMIVGGGITFYANWAKGRFTISRDNSKNTVYLQMNSLRAEDTAVYYCAVGSDGGISDFNIWGQGTLVTVSS
VL: DIQMTQSPSSLSASVGDRVTITCQASQSISSYLAWYQQKPGKAPKLLIYRASTLASGVPSRFSGSGSGTDFTLTISSLQPEDFATYYCQQAYSLSNVDNFFGTGTKVTVLG
notes: A single-chain Fv
As for B1, the binding result in assay [1] was “binds”.

B2: anti-Allergin-1 bispecific antibody #15_h_optv2 clone (bispecific antibody, human IgG1, kappa, L234A L235A, N297A)
heavy: EVQLVESGGGLVQPGGSLRLSCAASGFSLSSHAMSWVRQAPGKGLEWIGTISTIDTTYYASWAKGRFTISRDNSKNTVYLQMNSLRAEDTAVYYCARLSELYTTNSYYSRWGQGTLVTVSSASTKGPSVFPLAPSSKSTSGGTAALGCLVKDYFPEPVTVSWNSGALTSGVHTFPAVLQSSGLYSLSSVVTVPSSSLGTQTYICNVNHKPSNTKVDKRVEPKSCDKTHTCPPCPAPEAAGGPSVFLFPPKPKDTLMISRTPEVTCVVVDVSHEDPEVKFNWYVDGVEVHNAKTKPREEQYASTYRVVSVLTVLHQDWLNGKEYKCKVSNKALPAPIEKTISKAKGQPREPQVYTLPPSREEMTKNQVSLTCLVKGFYPSDIAVEWESNGQPENNYKTTPPVLDSDGSFFLYSKLTVDKSRWQQGNVFSCSVMHEALHNHYTQKSLSLSPGGGGGSGGGGSAIQMTQSPSSLSARVGDRVTITCQSSESVYDNNYLSWYQQKPGKAPKLLIYDASRLASGVPSRFSGSGSGTQFTLTISSLQPEDFATYYCLGGYDSSGWYAAFGTGTKVTVLGGGGGSGGGGSGGGGSGGGGSEVQLVESGGGLVQPGGSLRLSCAASGFSLTIYTITWVRQAPGKGLEWIGTINSYGNTYYSTWAKGRFTISRDNSKNTVYLQMNSLRAEDTAVYYCARGYVDSDWYLNIWGQGTLVTVSS
light: DIQMTQSPSSLSASVGDRVTITCQASESIGSLLAWYQQKPGKAPKLLIYRASTLESGVPSRFSGSGSGTDFTLTISSLQPEDFATYYCQSYHYSSSSSYAAFGQGTKVEIKRTVAAPSVFIFPPSDEQLKSGTASVVCLLNNFYPREAKVQWKVDNALQSGNSQESVTEQDSKDSTYSLSSTLTLSKADYEKHKVYACEVTHQGLSSPVTKSFNRGEC
notes: Morrison form: Fab Pro1571, scFv Pro2281
As usually defined, the EC50 is the concentration giving half of the maximal effect. In turn, B2 registered an EC50 in assay [2] of 2.41 nM.

B3: anti-Allergin-1 bispecific antibody #15_h_opt clone (bispecific antibody, human IgG1, kappa, L234A L235A, N297A)
heavy: B2 heavy with T565C, G637C
light: B2 light
notes: Morrison form: Fab Pro1571, scFv Pro2282
With B3, the response in assay [2] was half-maximal at 2.58 nM (EC50).

B4: anti-Allergin-1 bispecific antibody #15_h clone (bispecific antibody, human IgG1, kappa, L234A L235A, N297A)
heavy: B2 heavy with A461D, R474S, Q532D
light: B2 light
notes: Morrison form antibody: Fab from Pro1571 (S2-D), scFv from Pro1588 (S1-A) on the heavy chain C-terminus
In assay [2], B4 registered an EC50 of 2.37 nM.

B5: humanized scFv Pro1751 (scFv, V domains shown)
VH: EVQLVESGGGLVQPGGSLRLSCAASGIDFSSYYDMCWVRQAPGKCLEWIGCIYTGSVGELYYASWAKGRFTISRDNSKNTVYLQMNSLRAEDTAVYYCARRGSGVDDYYFNLWGQGTLVTVSS
VL: DIQMTQSPSSLSASVGDRVTITCQSSQSVDNNNWLAWYQQKPGKAPKLLIYDASTLASGVPSRFSGSGSGTDFTLTISSLQPEDFATYYCQGTYYTTDWWNSFGCGTKVTVLG
notes: A single-chain Fv
Take B5: in assay [1], the binding result is recorded as “binds”.

B6: humanized scFv Pro1707 (scFv, V domains shown)
VH: ESQLVESGGGLVQPGGSLRLSCAVSGIDLSSYAVGWVRQAPGKGLEWIGIIGRSGSIYYASWAKGRFTISKDNSKNTVYLQMNSLRAEDTAVYYCARDVDSRPPTGSLWGQGTLVTVSS
VL: DVQMTQSPSSLSASVGDRVTITCQASQNTYSNLDWYQQKPGKAPKLLIYQASKLASGVPSRFSGSGSGTDFTLTISSLQPEDFATYYCQSTSWGSSYVGGFGTGTKVTVLG
notes: A single-chain Fv
As for B6, the binding result in assay [1] is on record as “binds”.

B7: humanized scFv Pro1588 (scFv, V domains shown)
VH: EVQLVESGGGLVQPGGSLRLSCAASGFSLTIYTITWVRQAPGKGLEWIGTINSYGNTYYSTWAKGRFTISRDNSKNTVYLQMNSLRAEDTAVYYCARGYVDSDWYLNIWGQGTLVTVSS
VL: DIQMTQSPSSLSASVGDRVTITCQSSESVYDNNYLSWYQQKPGKAPKLLIYDASRLASGVPSRFSGSGSGTDFTLTISSLQPEDFATYYCLGGYDSSGWYAAFGTGTKVTVLG
notes: A single-chain Fv
With B7, the binding result in assay [1] is recorded as “binds”.

B8: humanized scFv Pro1571 (scFv, V domains shown)
VH: EVQLVESGGGLVQPGGSLRLSCAASGFSLSSHAMSWVRQAPGKGLEWIGTISTIDTTYYASWAKGRFTISRDNSKNTVYLQMNSLRAEDTAVYYCARLSELYTTNSYYSRWGQGTLVTVSS
VL: DIQMTQSPSSLSASVGDRVTITCQASESIGSLLAWYQQKPGKAPKLLIYRASTLESGVPSRFSGSGSGTDFTLTISSLQPEDFATYYCQSYHYSSSSSYAAFGTGTKVTVLG
notes: A single-chain Fv
Turning to B8, in assay [1], the binding result is recorded as “binds”.

B9: humanized scFv Pro1565 (scFv, V domains shown)
VH: EVQLVESGGGLVQPGGSLRLSCAASGFSLSSHAMAWVRQAPGKGLEWIGYIWSGGITEYPSWAKGRFTISRDNSKNTVYLQMNSLRAEDTAVYYCARDVHIYGDIYAFDLWGQGTLVTVSS
VL: DIQMTQSPSSLSASVGDRVTITCQASQDIESYLNWYQQKPGKAPKLLIYYASTLASGVPSRFSGSGSGTDFTLTISSLQPEDFATYYCQQSYSNSDVDKNVFGTGTKVTVLG
notes: A single-chain Fv
As for B9, the binding result in assay [1] is “binds”.

B10: humanized scFv Pro1742 (scFv, V domains shown)
VH: EVQLVESGGGLVQPGGSLRLSCAASGFSLNNYFMIWVRQAPGKCLEWIGIITSYHTTYFANWAKGRFTISRDNSKNTVYLQMNSLRAEDTAVYYCAPYDIYGYPTLWGQGTLVTVSS
VL: DIQMTQSPSSLSASVGDRVTITCQASQSIGAYLSWYQQKPGKAPKLLIYEASTLASGVPSRFSGSGSGTDFTLTISSLQPEDFATYYCLGAYGRSSDDGTAFGCGTKVTVLG
notes: A single-chain Fv
For B10, in assay [1], the binding result is given as “binds”.

B11: humanized scFv Pro1570 (scFv, V domains shown)
VH: EVQLVESGGGLVQPGGSLRLSCAASGFSLSSYAMIWVRQAPGKGLEWIGFIDTDGHTEYANWAKGRFTISRDNSKNTVYLQMNSLRAEDTAVYYCARDGDHDYWGFNLWGQGTLVTVSS
VL: DIQMTQSPSSLSASVGDRVTITCQASQNIYRNLVWYQQKPGKAPKLLIYGASELESGVPSRFSGSGSGTDFTLTISSLQPEDFATYYCLSTYYISSSDNSFGTGTKVTVLG
notes: A single-chain Fv
For the molecule B11, the binding result in assay [1] is listed as “binds”.

B12: anti-Allergin-1 bispecific antibody #15p_h_opt clone (bispecific antibody, human IgG1, kappa, L234A L235A, N297A)
heavy: EVQLVESGGGLVQPGGSLRLSCAASGFSLTIYTITWVRQAPGKGLEWIGTINSYGNTYYSTWAKGRFTISRDNSKNTVYLQMNSLRAEDTAVYYCARGYVDSDWYLNIWGQGTLVTVSSASTKGPSVFPLAPSSKSTSGGTAALGCLVKDYFPEPVTVSWNSGALTSGVHTFPAVLQSSGLYSLSSVVTVPSSSLGTQTYICNVNHKPSNTKVDKRVEPKSCDKTHTCPPCPAPEAAGGPSVFLFPPKPKDTLMISRTPEVTCVVVDVSHEDPEVKFNWYVDGVEVHNAKTKPREEQYASTYRVVSVLTVLHQDWLNGKEYKCKVSNKALPAPIEKTISKAKGQPREPQVYTLPPSREEMTKNQVSLTCLVKGFYPSDIAVEWESNGQPENNYKTTPPVLDSDGSFFLYSKLTVDKSRWQQGNVFSCSVMHEALHNHYTQKSLSLSPGGGGGSGGGGSDIQMTQSPSSLSASVGDRVTITCQASESIGSLLAWYQQKPGKAPKLLIYRASTLESGVPSRFSGSGSGTDFTLTISSLQPEDFATYYCQSYHYSSSSSYAAFGCGTKVTVLGGGGGSGGGGSGGGGSGGGGSEVQLVESGGGLVQPGGSLRLSCAASGFSLSSHAMSWVRQAPGKCLEWIGTISTIDTTYYASWAKGRFTISRDNSKNTVYLQMNSLRAEDTAVYYCARLSELYTTNSYYSRWGQGTLVTVSS
light: AIQMTQSPSSLSARVGDRVTITCQSSESVYDNNYLSWYQQKPGKAPKLLIYDASRLASGVPSRFSGSGSGTQFTLTISSLQPEDFATYYCLGGYDSSGWYAAFGQGTKVEIKRTVAAPSVFIFPPSDEQLKSGTASVVCLLNNFYPREAKVQWKVDNALQSGNSQESVTEQDSKDSTYSLSSTLTLSKADYEKHKVYACEVTHQGLSSPVTKSFNRGEC
notes: Morrison form: Fab Pro2281, scFv Pro2285
B12: the EC50 in assay [2] worked out at 1.49 nM.
